Read-outs that look alike come from different tables or passages of the source.
Experiments:
[1] = target: T1, CTCF ZF4-7 (human, UniProt P49711 349-465); experiment: fluorescence polarization
T1 sequence: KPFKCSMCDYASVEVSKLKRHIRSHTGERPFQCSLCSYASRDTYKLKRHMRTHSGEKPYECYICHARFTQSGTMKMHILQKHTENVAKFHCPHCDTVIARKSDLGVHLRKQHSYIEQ

[2] = target: T1, CTCF ZF4-7; experiment: fluorescence polarization; remark: listed apart in the source
[3] = target: T1, CTCF ZF4-7; experiment: fluorescence polarization; remark: listed apart in the source
[4] = target: T2, CTCF ZF3-7 (human, UniProt P49711 321-465); experiment: crystal structure
T2 sequence: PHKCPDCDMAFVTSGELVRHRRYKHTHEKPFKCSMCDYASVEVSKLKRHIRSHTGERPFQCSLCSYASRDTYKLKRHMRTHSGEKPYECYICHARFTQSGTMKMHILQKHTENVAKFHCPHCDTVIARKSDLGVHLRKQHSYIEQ

[5] = target: T3, CTCF ZF4-8 (human, UniProt P49711 348-492); experiment: fluorescence polarization
T3 sequence: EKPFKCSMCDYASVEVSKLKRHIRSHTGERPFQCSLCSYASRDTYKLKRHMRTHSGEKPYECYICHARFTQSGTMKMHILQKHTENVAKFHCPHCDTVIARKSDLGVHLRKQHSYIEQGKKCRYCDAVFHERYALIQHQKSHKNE

[6] = target: T1, CTCF ZF4-7; experiment: fluorescence polarization; remark: listed apart in the source
[7] = target: T3, CTCF ZF4-8; experiment: fluorescence polarization; remark: listed apart in the source
[8] = target: T1, CTCF ZF4-7; experiment: fluorescence polarization; remark: listed apart in the source
[9] = target: T2, CTCF ZF3-7; experiment: fluorescence polarization
[10] = target: T2, CTCF ZF3-7; experiment: fluorescence polarization; remark: listed apart in the source

B1: H19 (dsDNA)
DNA 1: GTTGCCGCGTGGTGGCAG
DNA 2: CTGCCACCACGCGGCAAC
- binding signal [1]: ~6 fold lower affinity than CORE

B2: CORE 5mC12 (dsDNA)
DNA 1: AGGACCAGCAGGGGGCGCA
DNA 2: TGCGCCCCCTGCTGGTCCT
modifications: 5mC at nt 16 of top strand (motif position 12)
- binding signal [2]: 1.5 fold higher affinity than CORE

B3: CORE 5mC2 (dsDNA)
DNA 1: AGGACCAGCAGGGGGCGCA
DNA 2: TGCGCCCCCTGCTGGTCCT
modifications: 5mC at nt 6 of top strand (motif position 2)
- binding signal [3]: ~23 fold lower affinity than CORE

B4: CORE crystal 17-mer (dsDNA)
DNA 1: GCCAGCAGGGGGCGCTA
DNA 2: TAGCGCCCCCTGCTGGC
- binding result [4]: binds

B5: control (dsDNA)
DNA 1: AATGGACGAGTCATAGGAGA
DNA 2: TTCTCCTATGACTCGTCCAT
- binding signal [5]: ~10 fold higher affinity than without ZF8 on control

B6: CORE A3G (dsDNA)
DNA 1: AGGACCGGCAGGGGGCGCA
DNA 2: TGCGCCCCCTGCCGGTCCT
- binding signal [6]: ~1 fold affinity vs CORE (indistinguishable)

B7: CORE (dsDNA)
DNA 1: AGGACCAGCAGGGGGCGCA
DNA 2: TGCGCCCCCTGCTGGTCCT
- binding signal [7]: ~1 fold affinity vs ZF4-7 on CORE (similar)
- binding signal [8]: 1 fold (reference)
- binding signal [9]: ~6 fold higher affinity than without ZF3
- binding signal [10]: ~4 fold higher affinity than without ZF3
